# PMC5024094, “Identification of a novel sesquiterpene biosynthetic machinery involved in astellolide biosynthesis” (Scientific Reports, 2016)
# B1: AstA (Aspergillus oryzae RIB40) (protein)
# chain: MDLEPWGPLYRKQDQDGSLDNIAVVSGDIPSPHPKNEPSQTSTLHIPRDSDLDSDIPSVPTALIIAWGLTLSSLTGDEVVGFDLLPFRGDYQDLGARPYHFLLKFGYREWSREAATTGMDLGSASSEGLPQGMGNRPQIAPSRFRNVLIIKQCSDAPGDSGSLESPSLGNVDKDEPTDAFRADMFISIQCGIGRTGIDVHCSFDPAFWTSENIRMILLDLSRNFKEVMRCGRDDTPLTCLEGMSPKGLDCVLRRNIIPPPPKMEACVHHRFQARCRQNPSALAIDAWDGQLTYAELDSLSSQLASRLVSSITICPRGFMGVLMEKSAWVPVAILAVLKVGSAFVFLDGSQPLQRLKIICAETKSQLVLSSAHYREKANTLGPPVLLVEKNQSGLGQAKENDSCPSLLEDYPQPQSQPQDTLYAVFTSGSTGEPKGAMVDHGAFCTMCGPQMAARPTTNVSPRVFQFAPHAFTVSILDYLGTLLQGGCVCVPSEEELRNNMAGAIEGLSANIVTMTPSMARVLDPTQTPSLQLVLLAGEMMAQCDLDKWSQCVRLLSLYGQSENAAGSMISEKSIVPRAPNTFETLTPGFQCWIVSQDNPHRLMALGEVGELLLEGPALGQGYMNDPIQTEDKFICRSFCLEYAHSGSPQSYRLFKTGDLVRYTPAGEIELLGRKGAEVKLRGQRIDLTEIEHHLRCLFPSATRVVADVIIPSDDIDGLHPVLAAFVQVDSVSRTGQSAEATFASPRPEFRAEAKAVLSGLCQTIPSYMIPMTIIPTEAFPFTATGKLDRRSLRQYASAMSRSDLLKYVTDDRGPVVTAVTPVEIIIHDACVEALGVSSDKVGMLDSFPDLGGDSLAARRMVSICRTKGLELAVADILAHSSLTSLAEKCSAGGGGAKQISQGVEMLDPFSTAKEEFLSHLPSFLPNADMIADVFPVQGAQRRAARAIDTFIFRLSGPVDADRLRDACQVLQQAHLALRSIFVPFYGKFMQVVLRVPPLDFTRRLLPDGTDLVKWAESIGQADKTQRPPSEEFVVRFTLAETAGTPDYSIFMMRLSHAQYDAGCLARIISDLWAVYEQKQLVVKSDFAQYARRAVQQTHLLSMEAFWRDLLAGTTGLTPLPVTGISAEEERTIIVQQRVELKEPPPTGISMATVVRGAWSWVLHQQTGNTVVVFNEMLNGRDVVPLEDTEPVVGACHSIVPVCVHFPLPQSGRTPRELLSALQEQHLASLTFTTLDRDYLIQNCTEWTSHQSGFILAYQNFPEICDLVIGEDLSCQWASQVLDLAEPGEAWVTATPLPGALQISLRVSTAAMDEQEANAWISALGQTIIRFLDSPDSVL
# notes: recombinant, expressed in Escherichia coli BL21, purified; 1338 aa gene product with A, T and C domains; tag details only in supplement
# How the values were obtained:
# purified protein [1] = substrate: O=C(O)c1ccc(O)cc1; assay: purified protein; conditions: A-domain, 2.5 mM ATP, 5 mM MgCl2, 50 mM Tris-HCl pH 7.4, 1 mM DTT, 2 μM AstA, Sfp modification of T-domain essential
# purified protein [2] = substrate: O=C(O)c1ccccc1; assay: purified protein; assay type: biochemical, Aspergillus oryzae; conditions: A-domain, 2.5 mM ATP, 5 mM MgCl2, 50 mM Tris-HCl pH 7.4, 1 mM DTT, 2 μM AstA, Sfp modification of T-domain essential
protein,measurement,setting,value
B1,Km,purified protein [1],3.8 µM
same,kcat,purified protein [1],0.0163 s⁻¹
same,Km,purified protein [2],4.9 µM
same,kcat,purified protein [2],0.0222 s⁻¹
